According to patent US20240409645A1 (DUALYX, published 2024):
Positions count from the first letter of the chain named.

T1: human IL-2Rα (human, UniProt P01589 22-240, limits assumed)
T1 construct: recombinant protein; also called hu IL-2R; human IL-2Ra
T1 sequence: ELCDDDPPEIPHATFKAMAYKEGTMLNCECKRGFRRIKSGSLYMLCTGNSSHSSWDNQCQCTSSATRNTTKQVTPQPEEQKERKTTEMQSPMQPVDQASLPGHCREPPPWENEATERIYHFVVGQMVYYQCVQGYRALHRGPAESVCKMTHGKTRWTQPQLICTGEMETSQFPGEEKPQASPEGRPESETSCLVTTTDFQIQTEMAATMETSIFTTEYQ

T2: human common cytokine receptor γ-chain (IL-2Rγ) (human, UniProt P31785 23-262, limits assumed)
T2 construct: Recombinant human IL-2Rγ protein, coated (ELISA) or amine-coupled to a CM5 chip (SPR); also called hu IL-2R; CD132
T2 sequence: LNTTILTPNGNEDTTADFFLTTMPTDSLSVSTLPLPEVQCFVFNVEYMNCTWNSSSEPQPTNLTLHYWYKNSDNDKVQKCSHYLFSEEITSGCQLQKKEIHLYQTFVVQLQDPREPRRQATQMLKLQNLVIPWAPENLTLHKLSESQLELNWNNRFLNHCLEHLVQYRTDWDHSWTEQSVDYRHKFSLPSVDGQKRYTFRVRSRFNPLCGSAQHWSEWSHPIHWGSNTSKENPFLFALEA

B1: FJ1427_P035MP01E12 (VHH)
VHH: QVQLVESGGGLVQAGGSLRLSCAASGITFNDHTMAWFRQAPGKEREFVAARDWSDIITRYASSVKGRFTISRDNAGNTGFLQMNSLRPEDTAVYYCAAREGGVVAGVRSGAPYDYWGQGTQVTVSS
notes: periplasmic extract; also called clone nr; 93
B2: FJ1427_P035MP05H01 (VHH)
VHH: B1 VHH with Q1E
notes: periplasmic extract; also called clone nr
B3: FJ1427_P035MP01F12 (VHH)
VHH: B1 VHH with Q1E, R19G, S126P
notes: periplasmic extract; also called clone nr; 94
B4: FJ1427_P035MP05H02 (VHH)
VHH: B1 VHH with Q1E, S62G
notes: periplasmic extract; also called clone nr; 400
B5: FJ1427_P035MP05B03 (VHH)
VHH: B1 VHH with V5Q, A14P
notes: as for B2
B6: FJ1427_P035MP01G11 (VHH)
VHH: B1 VHH with Q118R
notes: periplasmic extract; also called clone nr; 87
B7: FJ1427_P035MP01F07 (VHH)
VHH: QVQLVESGGGLVQAGGSLRLSCAATGLTFRQHNMGWFRRAPGKEREFVAAISWNVGSTYFADSVKGRFTISRDNGKNMVYLQMNSLKPEDTAVYYCAADNIPLASDMRATATAYGYWGQGTQVTVSS
notes: periplasmic extract; also called clone nr; 54
B8: FJ1427_P035MP04F12 (VHH)
VHH: QVQLQESGGGWVQVGESLRLSCVPSGRTFVSGIMGWFRQAPGKEREFVARIILNNNSTRYTDSVKGRFTISRDSAKNTMYLQMNTLRPEDTAVYYCAARDRYGSGNSLSPSAYDYWGQGTQVTVSS
notes: tested as periplasmic extract; also called Clone nr
B9: FJ1427_P035MP07C02 (VHH)
VHH: B8 VHH with Q1E, Q5V, V23A, A40T
notes: tested as periplasmic extract; also called Clone nr; 587
B10: FJ1427_P035MP05B07 (VHH)
VHH: QLQLVESGGGLVQAGGSLRLSCAASGLTFDGYAIGWFRQASGKEREGVSYINGRDGSTFYADSVKGRFIISSDNAKNTVDLQMNSLKPDDAAVYYCAVDRLGSRGAYVSSWWRSPDMDLWGKGTLVTVSS
notes: as for B2
B11: FJ1427_P035MP01H02 (VHH)
VHH: QLQLVESGGGLVQAGDSLRLSCAASGRAFSRYAVGWFRMAPGKGREFVSAINSSGANTYVLDSVKGRFTISRDNDKNTAYLQMDSLQPEDTAVYWCAATSSSYSTYEANYNVWGQGTQVTVSS
notes: periplasmic extract; also called clone nr; 16
B12: FJ1427_P035MP05E08 (VHH)
VHH: EVQLVESGGGSVQAGGSLRLSCEASGPTLFSSYGMGWFRQAPGKKEREFVGAISRYGTYTSYADPVKDRFTISRDNAKSTVYLQMNNTKPEDTAVYYCAAYTYSGSFYSTVKTHHDEYHYWGQGTQVTVSS
notes: as for B2
B13: FJ1427_P035MP05D11 (VHH)
VHH: B12 VHH with E1Q, F70L, D75G
notes: as for B2
B14: FJ1427_P035MP07A01 (VHH)
VHH: EVQLVESGGGLVQAGDSLRLSCAASGRTLSRYAMGWFRQAPGKEREFVTANSWGGDTYYADSVQGRFTFSRDNAKNTVYLQMNSLQPEDTAVYYCAAAPTSFATTAYSSSNSYAYWGQGTQVTVSS
notes: as for B8
B15: FJ1427_P035MP07A04 (VHH)
VHH: B14 VHH with E1Q, D16G, A40G, T49A, N51D, A60D, Q64E, N73I, A74T, T77A
notes: as for B8
B16: FJ1427_P035MP07B01 (VHH)
VHH: B14 VHH with E1Q, D16G, S70T
notes: as for B8
B17: FJ1427_P035MP07C04 (VHH)
VHH: B14 VHH with E1Q, L11V, D16G
notes: as for B8
B18: FJ1427_P035MP07F03 (VHH)
VHH: B14 VHH with E1Q, A14T, D16G
notes: as for B8
B19: FJ1427_P035MP07F08 (VHH)
VHH: B14 VHH with E1Q, D16G, Y32D, T49A, N51D, Y58F, Q64E, T77A, A97G, A114R
notes: tested as periplasmic extract; also called Clone nr; 638
B20: FJ1427_P035MP07A10 (VHH)
VHH: B14 VHH with E1Q, D16G, K43S, T49A, N51S, Y58F, Q64E, T77A, V92A, A103P
notes: as for B8
B21: FJ1427_P035MP07G09 (VHH)
VHH: QVQLQESGGGLVQAGGSLRLSCAASGRTLSRVAMGWFRQAPGKEREFVAADSWGGDTFYADSVEGRFTFSRDNAKNAVYLQMNSLQPEDTAVYFCAGAPASFATTAYSSSNSYSYWGQGTQVTVSS
notes: tested as periplasmic extract; also called Clone nr; 647
B22: FJ1427_P035MP07H09 (VHH)
VHH: B14 VHH with E1Q, D16G, T49A, A60T, Q64E, T77A, A114T
notes: as for B8
B23: FJ1427_P035MP07D04 (VHH)
VHH: B14 VHH with D16G, A40G, T49A, N51D, A60D, Q64E, N73I, A74T, T77A
notes: as for B8
B24: FJ1427_P035MP07E07 (VHH)
VHH: B14 VHH with D16G, K43S, T49A, N51S, Y58F, Q64E, T77A, V92A, A103P
notes: as for B8
B25: FJ1427_P035MP05E11 (VHH)
VHH: EVQLVESGGGSVQAGGSLRLSCAASGRTLYSSYGMAWFRQAPGKERDFVGSISRYGTYTSYADSVKDRFTISRDNAKSTVYLQMNNTKPEDTAVYYCAAYTYSGSFYSTVKTHRDEYQYWGQGTQVTVSS
notes: as for B2
B26: FJ1427_P035MP05A07 (VHH)
VHH: B25 VHH with E1Q, S11L, V12A, G16A, D67G
notes: as for B2
B27: FJ1427_P035MP05C07 (VHH)
VHH: B25 VHH with E1Q, A23E, Y30F, A36G, D47E, S51A, Y55F, S64P, R114H, Q118R
notes: periplasmic extract; also called 92-MP05C07
B28: FJ1427_P035MP05C04 (VHH)
VHH: B25 VHH with A23E, Y30F, A36G, D47E, S51A, Y55F, S64P, R114H, Q118R
notes: periplasmic extract; also called clone nr; 411
B29: FJ1427_P035MP05E03 (VHH)
VHH: B25 VHH with S11L
notes: as for B2

Experiments:
human IL-2Rα [1] = biological target: T1, human IL-2Rα; test: ELISA, P.E. on coated antigen
Description: (§1) In a binding ELISA, human or mouse IL-2Rα, IL-2Rβ and IL-2Rγ proteins were coated directly on maxisorp microtiter plates overnight at 4° C. Free binding sites were blocked using 4% Marvel in PBS for 1 hour. Next, 1:5 dilution of P.E. in 1% Marvel/PBS were added to wells and incubated for 1 hour. […] Binding specificity was determined based on O.D. at 450 nm values compared to negative controls.

human IL-2Rα [2] = biological target: T1, human IL-2Rα; test: SPR, P.E. on immobilised antigen
Description: (§2) SPR was performed to determine dissociation rates using Biacore 3000 instrument (GE Healthcare). Briefly, human and mouse IL-2R proteins were immobilized on carboxylmethyl dextran sensor chip (CM5) at approximately 2500 RUs using amine coupling in acetate buffer (GE Healthcare). The VHH-containing P.E. were loaded with a flow rate of 30 uL/min and the off-rates were measured over a 120s period.

[3] = biological target: T2, human common cytokine receptor γ-chain …; test: P.E. off-rate SPR
Description: as §2

[4] = biological target: T2, human common cytokine receptor γ-chain …; test: P.E. binding ELISA
Description: as §1

Row | Binder | OD (PE binding ELISA) (human IL-2Rα [1]) [OD450 nm] | koff (human IL-2Rα [2]) [s⁻¹] | koff [3] [s⁻¹] | PE binding ELISA OD [4] [OD450 nm]
1 | B1 | 2.69 | 0.000141 |  | 
2 | B2 | 2.62 | 0.000141 |  | 
3 | B3 | 2.67 | 0.00011 |  | 
4 | B4 | 2.29 | 0.000141 |  | 
5 | B5 | 2.42 | 0.000131 |  | 
6 | B6 | 2.73 | 0.000123 |  | 
7 | B7 | 2.76 | 0.00067 |  | 
8 | B8 |  |  | 0.00714 | 2.02
9 | B9 |  |  | 0.0186 | 0.48
10 | B10 | 1.77 | 0.00195 |  | 
11 | B11 | 2.35 | 0.00115 |  | 
12 | B12 | 2.33 | 0.000214 |  | 
13 | B13 | 2.54 | 0.000662 |  | 
14 | B14 |  |  | 0.00151 | 0.478
15 | B15 |  |  | 0.00126 | 0.507
16 | B16 |  |  | 0.00235 | 0.518
17 | B17 |  |  | 0.00267 | 0.406
18 | B18 |  |  | 0.00321 | 0.497
19 | B19 |  |  | 0.00185 | 1.24
20 | B20 |  |  | 0.00242 | 0.759
21 | B21 |  |  | 0.0024 | 1.14
22 | B22 |  |  | 0.00346 | 1.11
23 | B23 |  |  | 0.00243 | 0.792
24 | B24 |  |  | 0.00225 | 0.359
25 | B25 | 2.35 | 0.001 |  | 
26 | B26 | 2.43 | 0.00104 |  | 
27 | B27 | 1.73 | 0.00141 |  | 
28 | B28 | 1.83 | 0.000905 |  | 
29 | B29 | 2.48 | 0.000772 |  | 
